{
  "source": "patent US20030219857",
  "key": {"[1]": {"test_system": "histone protein, native"}, "[2]": {"test_system": "synthetic Bovine Serum Albumin peptide 5 (BSA5)"}, "[3]": {"target": "ovalbumin, native (UniProt P01012)", "sequence (P01012 2-386)": "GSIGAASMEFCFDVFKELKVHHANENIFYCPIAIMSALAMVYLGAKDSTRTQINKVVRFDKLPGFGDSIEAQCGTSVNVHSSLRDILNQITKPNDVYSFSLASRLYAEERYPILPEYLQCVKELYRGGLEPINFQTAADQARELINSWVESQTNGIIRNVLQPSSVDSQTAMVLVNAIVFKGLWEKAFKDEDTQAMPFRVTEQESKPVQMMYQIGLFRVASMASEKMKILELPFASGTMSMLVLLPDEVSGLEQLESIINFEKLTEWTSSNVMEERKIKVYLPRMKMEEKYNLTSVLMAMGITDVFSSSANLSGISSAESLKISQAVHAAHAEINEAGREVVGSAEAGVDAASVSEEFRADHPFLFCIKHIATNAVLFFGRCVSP"}, "[4]": {"target": "glucose oxidase (UniProt P13006)", "sequence (P13006 23-605)": "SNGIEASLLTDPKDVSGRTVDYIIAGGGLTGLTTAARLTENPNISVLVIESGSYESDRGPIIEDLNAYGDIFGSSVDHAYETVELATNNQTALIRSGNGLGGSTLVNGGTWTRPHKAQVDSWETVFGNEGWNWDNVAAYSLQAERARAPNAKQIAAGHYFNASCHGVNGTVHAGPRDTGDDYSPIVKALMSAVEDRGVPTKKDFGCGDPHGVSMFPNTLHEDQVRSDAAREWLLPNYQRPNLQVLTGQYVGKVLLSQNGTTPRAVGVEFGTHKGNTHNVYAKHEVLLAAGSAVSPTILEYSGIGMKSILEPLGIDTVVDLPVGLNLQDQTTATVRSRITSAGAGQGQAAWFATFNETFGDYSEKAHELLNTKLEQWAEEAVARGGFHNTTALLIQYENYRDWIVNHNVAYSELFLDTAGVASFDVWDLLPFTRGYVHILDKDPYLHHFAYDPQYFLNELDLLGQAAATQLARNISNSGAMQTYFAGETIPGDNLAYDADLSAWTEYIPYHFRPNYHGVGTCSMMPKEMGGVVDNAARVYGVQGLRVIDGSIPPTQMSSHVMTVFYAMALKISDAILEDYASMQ"}, "[5]": {"target": "bovine serum albumin (BSA), native (UniProt P02769)", "sequence (P02769 25-607)": "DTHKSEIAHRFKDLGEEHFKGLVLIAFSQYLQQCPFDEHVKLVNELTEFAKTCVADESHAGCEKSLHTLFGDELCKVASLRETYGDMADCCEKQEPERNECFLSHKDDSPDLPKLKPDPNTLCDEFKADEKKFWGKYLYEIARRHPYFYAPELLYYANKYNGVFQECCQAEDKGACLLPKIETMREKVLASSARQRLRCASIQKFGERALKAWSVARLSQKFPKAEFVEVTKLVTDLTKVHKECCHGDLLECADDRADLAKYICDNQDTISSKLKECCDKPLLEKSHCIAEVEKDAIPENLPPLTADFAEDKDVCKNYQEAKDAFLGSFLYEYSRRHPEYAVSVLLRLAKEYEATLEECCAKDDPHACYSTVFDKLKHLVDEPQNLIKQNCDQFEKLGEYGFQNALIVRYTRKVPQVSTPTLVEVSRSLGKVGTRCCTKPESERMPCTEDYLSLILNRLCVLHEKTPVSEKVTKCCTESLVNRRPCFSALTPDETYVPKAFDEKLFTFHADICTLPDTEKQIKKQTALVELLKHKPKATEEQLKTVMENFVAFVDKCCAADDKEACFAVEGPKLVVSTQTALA"}, "[6]": {"target": "T1, β-casein (UniProt P02666)", "T1 sequence": "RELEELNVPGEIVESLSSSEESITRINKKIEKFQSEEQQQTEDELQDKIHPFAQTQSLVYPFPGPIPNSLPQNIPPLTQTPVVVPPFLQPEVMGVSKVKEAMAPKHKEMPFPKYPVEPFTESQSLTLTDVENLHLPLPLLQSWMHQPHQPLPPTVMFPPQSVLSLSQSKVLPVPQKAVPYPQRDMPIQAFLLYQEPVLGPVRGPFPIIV"}, "[7]": {"test_system": "modified histone H3 protein (denatured and partially refolded)"}, "[8]": {"test_system": "β-amyloid peptide (1-42)"}, "[9]": {"target": "modified ovalbumin (denatured and partially refolded) (UniProt P01012)", "sequence (P01012 2-386)": "as the sequence (P01012 2-386) above"}, "[10]": {"test_system": "myelin basic protein (MBP)", "sequence (P02687 whole entry)": "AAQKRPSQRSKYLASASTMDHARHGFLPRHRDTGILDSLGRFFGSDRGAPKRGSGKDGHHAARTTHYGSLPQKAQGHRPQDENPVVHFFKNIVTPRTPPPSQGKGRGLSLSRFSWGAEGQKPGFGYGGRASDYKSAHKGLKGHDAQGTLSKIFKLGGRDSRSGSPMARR"}, "[11]": {"target": "modified bovine serum albumin (denatured and partially refolded) (UniProt P02769)", "sequence (P02769 25-607)": "as the sequence (P02769 25-607) above"}, "[12]": {"test_system": "recombinant serum albumin", "sequence (P02768 25-609)": "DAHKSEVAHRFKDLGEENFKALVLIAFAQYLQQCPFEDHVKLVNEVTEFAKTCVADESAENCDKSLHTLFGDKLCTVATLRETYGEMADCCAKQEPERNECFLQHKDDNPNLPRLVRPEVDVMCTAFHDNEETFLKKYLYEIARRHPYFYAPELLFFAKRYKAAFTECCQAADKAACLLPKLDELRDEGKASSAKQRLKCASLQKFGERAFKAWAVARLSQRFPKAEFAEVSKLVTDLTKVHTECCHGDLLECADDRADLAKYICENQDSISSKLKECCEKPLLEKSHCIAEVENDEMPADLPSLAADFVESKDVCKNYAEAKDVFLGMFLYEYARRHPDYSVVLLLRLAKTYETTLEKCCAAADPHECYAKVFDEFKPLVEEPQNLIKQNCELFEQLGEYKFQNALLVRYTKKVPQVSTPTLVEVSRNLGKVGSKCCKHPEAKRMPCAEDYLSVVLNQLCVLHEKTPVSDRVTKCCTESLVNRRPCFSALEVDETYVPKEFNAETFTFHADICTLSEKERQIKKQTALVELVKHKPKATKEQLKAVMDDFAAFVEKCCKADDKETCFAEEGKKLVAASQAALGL"}},
  "data": [
    {"protein": "recombinant 6X-His-TGase fusion protein of Streptomyces mobaraensis ATCC 29032 (enzyme, UniProt P81453 77-407, looked up, N-terminal 6xHis tag) Protein-glutamine gamma-glutamyltransferase: DSDDRVTPPAEPLDRMPDPYRPSYGRAETVVNNYIRKWQQVYSHRDGRKQQMTEEQREWLSYGCVGVTWVNSGQYPTNRLAFASFDEDRFKNELKNGRPRSGETRAEFEGRVAKESFDEEKGFQRAREVASVMNRALENAHDESAYLDNLKKELANGNDALRNEDARSPFYSALRNTPSFKERNGGNHDPSRMKAVIYSKHFWSGQDRSSSADKRKYGDPDAFRPAPGTGLVDMSRDRNIPRSPTSPGEGFVNFDYGWFGAQTEADADKTVWTHGNHYHAPNGSLGAMHVYESKFRNWSEGYSDFDRGAYVITFIPKSWNTAPDKVKQGWP", "values": [
      {"measurement": "cross-linking of native non-substrate proteins", "setting": "[1]", "result": "there was no cross-linking even in the presence of a large amount of the purified recombinant transglutaminase fusion proteins in the activation solution"},
      {"measurement": "cross-linking seen on SDS-PAGE", "setting": "[1]", "result": "complete and partial cross-linking was both observed for native histine H3 protein under the condition tested"},
      {"measurement": "cross-linking seen on SDS-PAGE, rising amounts of SM TGase", "setting": "[2]", "result": "increased amount of recombinant SM TGase corresponding to an increase in cross-linked (CL) BSA5 peptide, which run as a large molecular weight polymer on the top of the separating gel"},
      {"measurement": "cross-linking of native non-substrate proteins", "setting": "[3]", "result": "there was no cross-linking even in the presence of a large amount of the purified recombinant transglutaminase fusion proteins in the activation solution"},
      {"measurement": "cross-linking of native non-substrate proteins", "setting": "[4]", "result": "there was no cross-linking even in the presence of a large amount of the purified recombinant transglutaminase fusion proteins in the activation solution"},
      {"measurement": "cross-linking of native non-substrate proteins", "setting": "[5]", "result": "there was no cross-linking even in the presence of a large amount of the purified recombinant transglutaminase fusion proteins in the activation solution"},
      {"measurement": "cross-linking of a mixture of β-casein and glucose oxidase, SDS-PAGE", "setting": "[6]", "result": "both protein species can be cross-linked by the purified recombinant SM TGase, as indicated by the disappearance of the two monomer bands"},
      {"measurement": "cross-linking of β-casein seen on SDS-PAGE, 0 mM DTT", "setting": "[6]", "result": "in the absence of DTT (lane 1 and 2), the recombinant SM TGase had no cross-linking activity on β-casein"},
      {"measurement": "cross-linking of β-casein seen on SDS-PAGE, about 2 mM DTT", "setting": "[6]", "result": "the recombinant SM TGase was activated and β-casein run as a mixture of cross-linked polymer and monomer"},
      {"measurement": "cross-linking of β-casein seen on SDS-PAGE, about 10 mM DTT", "setting": "[6]", "result": "the catalytic cross-linking activity of SM TGase resulted in cross-linking of all detectable β-casein substrates in the reaction"},
      {"measurement": "cross-linking seen on SDS-PAGE", "setting": "[6]", "result": "the cross-linked (CL) β-casein migrated as a smear on the SDS-PAGE gel indicating a mixture of high molecular weight polymers of different length"},
      {"measurement": "cross-linking seen on SDS-PAGE", "setting": "[7]", "result": "only the reactions containing the modified protein species of BSA, histine H3 protein, glucose oxidase, and ovalbumin were cross-linked by the purified recombinant SM TGase"},
      {"measurement": "cross-linking seen on SDS-PAGE, 1, 2 and 3 hours", "setting": "[8]", "result": "The β-amyloid (1-42) peptide can be cross-linked by the recombinant transglutaminase as shown as a smear of a mixture of cross-linked peptides on the top of the separating gel and the disappearance of the peptide bands at the bottom of the SDS-PAGE"},
      {"measurement": "cross-linking seen on SDS-PAGE", "setting": "[9]", "result": "only the reactions containing the modified protein species of BSA, histine H3 protein, glucose oxidase, and ovalbumin were cross-linked by the purified recombinant SM TGase"},
      {"measurement": "cross-linking of native non-substrate proteins", "setting": "[10]", "result": "there was no cross-linking even in the presence of a large amount of the purified recombinant transglutaminase fusion proteins in the activation solution"},
      {"measurement": "cross-linking seen on SDS-PAGE", "setting": "[11]", "result": "only the reactions containing the modified protein species of BSA, histine H3 protein, glucose oxidase, and ovalbumin were cross-linked by the purified recombinant SM TGase"},
      {"measurement": "cross-linking seen on SDS-PAGE", "setting": "[12]", "result": "the cross-linking reaction containing recombinant serum albumin revealed a mixture of very high molecular weight polymers of different length"}
    ]}
  ]
}
